Source: paper PMC8871475, “An Antibody-Aptamer-Hybrid Lateral Flow Assay for Detection of CXCL9 in Antibody-Mediated Rejection after Kidney Transplantation”

Molecular target: T1, CXCL9 (CXC-motif chemokine ligand 9) (UniProt Q07325 23-125)
T1 sequence: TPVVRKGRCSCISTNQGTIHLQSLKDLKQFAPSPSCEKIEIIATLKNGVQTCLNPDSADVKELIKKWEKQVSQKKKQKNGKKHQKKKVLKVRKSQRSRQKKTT
Experiment: lateral flow assay (antibody-aptamer sandwich); capture antibody A in test zone; LOD 10 pg/mL CXCL9 in binding buffer, 45 min; LFA binding buffer (PBS-based, urine-like): 138 mM NaCl, 5 mM KCl, 8.1 mM Na2HPO4, 1.5 mM KH2PO4, 1 mM MgCl2, 1 mM CaCl2, 170 mM urea, 7 mM ammonium acetate, 0.25% BSA, 0.1 mg/mL salmon sperm DNA, pH 6.5; temperature not stated; Kd conditions not given
Conditions: protein: commercial; label: gold nanoparticle (5')

B1: AuNP-G123 (ssDNA)
DNA: CACGACGCAAGGGACCACAGGGAGGGAGGGTGGGCAAAGGGCCCTAAGTCCGTAACAAAAACACAGCACGACACCGCAGAGGCA
modifications: 5' C6-disulfide linker and hexaethylene glycol spacer
- binding result: binds
